Experimental findings from US20200369765A1 (INNATE PHARMA, published 2020) are described below.

Experiment [1] deals with T1, Human Siglec-7 (human, UniProt Q9Y286 19-467).
T1 construct: Expressed on transfected CHO cells; also called huSiglec-7; CD328
Put plainly: flow cytometry, CHO transfectants.

The target in experiment [2] is T2, Human Siglec-9 (human, UniProt Q9Y336 18-463).
T2 construct: On transfected CHO cells; also on YTS and KHYG-1 transfectants, primary NK cells and moDC; also called huSiglec-9; CD329
Put plainly: flow cytometry titration on untreated monocyte-derived dendritic cells (moDCs), goat F(ab')2 anti-human IgG (Fc) PE; table under the left panel. The procedure: Binding on moDCs and neuraminidase treated moDCs was tested in a titration experiment by flow cytometry. Cells were incubated 1h in Staining Buffer (SB) with primary antibodies at 10 ug/ml and a series of dilution of 1:10. They were washed two times with SB, then incubated 30 min with a Goat F(ab′)² Anti-Human IgG (Fc) PE (Jackson ImmunoResearch), and washed twice with SB.
(Flow cytometry measures light scatter and fluorescence of single cells or particles in a stream.)

Experiment [3] addresses T2, Human Siglec-9. Nature of the experiment: flow cytometry on fresh purified human NK cells, mean of 4 donors. The procedure: Binding of antibodies on fresh purified human NK cells was tested by titration experiment by flow cytometry. Cells were incubated 1h in Staining Buffer (SB) with primary antibodies at 10 ug/ml and a series of dilution of 1:10. They were washed three times with SB, then incubated 30 min with a Goat F(ab′)² Anti-Human IgG (Fc) PE (Jackson ImmunoResearch). Stainings were acquired on a BD FACS Canto II and analyzed using the FlowJo software. EC₅₀ values are shown in the table below in μg/ml (calculated using a 4-parameter logistic fit).
Target sequence in this assay (Q9Y336 18-463): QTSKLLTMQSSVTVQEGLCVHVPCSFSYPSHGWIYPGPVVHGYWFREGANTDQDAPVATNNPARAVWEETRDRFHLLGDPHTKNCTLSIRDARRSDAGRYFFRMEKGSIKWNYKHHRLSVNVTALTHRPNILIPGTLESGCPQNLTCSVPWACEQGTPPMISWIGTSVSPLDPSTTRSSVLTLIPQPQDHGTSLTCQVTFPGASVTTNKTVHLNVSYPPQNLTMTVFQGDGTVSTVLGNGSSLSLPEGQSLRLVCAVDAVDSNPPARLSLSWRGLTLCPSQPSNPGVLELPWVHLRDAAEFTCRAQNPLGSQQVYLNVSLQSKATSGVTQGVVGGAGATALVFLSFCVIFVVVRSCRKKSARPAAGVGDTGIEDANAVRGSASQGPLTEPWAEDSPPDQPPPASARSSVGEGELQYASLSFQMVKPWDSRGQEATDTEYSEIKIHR

The target of experiment [4] is T3, Human Siglec-9 mutant M11 (human, UniProt Q9Y336 18-463).
T3 construct: Expressed on HEK293T cells; also called Mutant 11
Put plainly: flow cytometry, HEK293T transfectants.

In another experiment the target is T4, Human Siglec-9 mutant M5 (human, UniProt Q9Y336 18-463).
T4 construct: Expressed on HEK293T cells; also called Mutant 5
Put plainly: flow cytometry, HEK293T transfectants.

The target in the next experiment is T5, Human Siglec-9 mutant M3 (human, UniProt Q9Y336 18-463).
T5 construct: Expressed on HEK293T cells; also called Mutant 3
Nature of the experiment: flow cytometry, HEK293T transfectants.

Experiment [5] has as its target T6, Human Siglec-9 mutant M9 (human, UniProt Q9Y336 18-463).
T6 construct: Expressed on HEK293T cells; also called Mutant 9
Nature of the experiment: flow cytometry, HEK293T transfectants.

The target in experiment [6] is T7, Human Siglec-9 mutant M10 (human, UniProt Q9Y336 18-463).
T7 construct: Expressed on HEK293T cells; also called Mutant 10
Put plainly: flow cytometry, HEK293T transfectants.

In experiment [7] the target is T8, Human Siglec-9 N-terminal V-set Ig-like domain (human).
T8 construct: expressed on HEK293T cells
Put plainly: flow cytometry, HEK293T cells expressing single Siglec-9 domains.

The target of experiment [8] is T3, Human Siglec-9 mutant M11. Put plainly: flow cytometry, HEK293T transfectants; '-' indicates full loss of binding.
Experiment [9] addresses T6, Human Siglec-9 mutant M9. The description is as above.
Target sequence in this assay (Q9Y336 other isoform, or with tags, fused parts or gaps mutant): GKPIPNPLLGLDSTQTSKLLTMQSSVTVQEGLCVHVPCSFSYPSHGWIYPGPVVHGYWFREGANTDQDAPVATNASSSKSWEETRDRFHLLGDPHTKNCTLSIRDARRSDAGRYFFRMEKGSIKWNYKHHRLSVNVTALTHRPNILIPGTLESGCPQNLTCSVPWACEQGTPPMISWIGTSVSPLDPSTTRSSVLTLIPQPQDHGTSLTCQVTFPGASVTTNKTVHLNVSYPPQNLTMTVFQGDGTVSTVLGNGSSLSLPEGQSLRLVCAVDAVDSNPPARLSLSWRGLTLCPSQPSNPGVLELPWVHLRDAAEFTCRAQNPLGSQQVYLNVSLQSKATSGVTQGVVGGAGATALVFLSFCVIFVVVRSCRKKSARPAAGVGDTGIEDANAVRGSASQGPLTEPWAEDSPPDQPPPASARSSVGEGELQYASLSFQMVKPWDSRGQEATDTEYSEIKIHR
Experiment [10] has as its target T7, Human Siglec-9 mutant M10. Described as above.
The target in experiment [11] is T2, Human Siglec-9. Nature of the experiment: flow cytometry, CHO transfectants. The protocol: (§1) Binding of antibodies on human Siglec-7, human Siglec-9 and Cynomolgus Siglec-9 was tested by titration experiment by flow cytometry on CHO cells transfected with human Siglec-7 and human Siglec-9 and Cynomolgus Siglec-9. Cells were incubated 1h in Staining Buffer (SB) with primary antibodies at 20 ug/ml and a series of dilution of 1:5. They were washed three times with SB, then incubated 30 min with a goat F(ab′)² Anti-human IgG (Fc) PE (Beckman Coulter #1M05510), and washed twice with SB.
Target sequence in this assay (Q9Y336 18-463): as the sequence (Q9Y336 18-463) above

Experiment [12] deals with T1, Human Siglec-7. Put plainly: flow cytometry, CHO transfectants. The protocol:
as §1
The source holds these as a separate data set.

The next experiment concerns the target T9, Cynomolgus Siglec (cynomolgus).
T9 construct: Expressed on transfected CHO cells; also called Siglec-Cyno; cynoSiglec
Nature of the experiment: flow cytometry, CHO transfectants. The protocol: as §1

The next experiment deals with T10, Siglec-9 Fc protein (human).
T10 construct: Produced in CHO cells; also called human Siglec-9 Fc
Put plainly: ELISA, blocking: Siglec-9 Fc captured on protein A, mAb dilution series, then biotinylated polymer Sia1 (Neu5Aca2-3Galb1-4GlcNAcb-PAA-biotin), streptavidin-peroxidase (top panel). The protocol:
Blocking of the interaction between Siglec-7 and -9 and sialylated ligands by anti Siglec-7/9 antibodies was tested on ELISA assays. Siglec proteins were Siglec-7 human Fc and Siglec-9 Human Fc recombinant proteins, and ligands were biotinylated polymers with sialylated trisaccharides (Neu5Aca2-3Galb1-4GcNAcb-PAA-biotin Glycotech #01-077 referred to as “Sia1” and 6′-Sialyllactose-PAA-biotin Glycotech #01-039 (referred to as “Sia2”). Briefly, Protein A was coated on ELISA plates over night at 4° C. After 3 washes and saturation, Siglec-7 Fc and Siglec-9 Fc were added at 0.8 μg/well at RT for 1H30. After 3 washes, mAbs were added at 20 ug/ml and a series of dilution of 1:5. After 3 washes, biotinylated sialylated polymers were added for 3 hours at room temperature. After 3 washes, Streptavidin-Peroxidase (Beckman) was added at 1:1000. […] The absorbance was read at 450 nm.

For orientation: EC50 means the midpoint of the concentration-response curve.

T5 sequence (Q9Y336 other isoform, or with tags, fused parts or gaps mutant): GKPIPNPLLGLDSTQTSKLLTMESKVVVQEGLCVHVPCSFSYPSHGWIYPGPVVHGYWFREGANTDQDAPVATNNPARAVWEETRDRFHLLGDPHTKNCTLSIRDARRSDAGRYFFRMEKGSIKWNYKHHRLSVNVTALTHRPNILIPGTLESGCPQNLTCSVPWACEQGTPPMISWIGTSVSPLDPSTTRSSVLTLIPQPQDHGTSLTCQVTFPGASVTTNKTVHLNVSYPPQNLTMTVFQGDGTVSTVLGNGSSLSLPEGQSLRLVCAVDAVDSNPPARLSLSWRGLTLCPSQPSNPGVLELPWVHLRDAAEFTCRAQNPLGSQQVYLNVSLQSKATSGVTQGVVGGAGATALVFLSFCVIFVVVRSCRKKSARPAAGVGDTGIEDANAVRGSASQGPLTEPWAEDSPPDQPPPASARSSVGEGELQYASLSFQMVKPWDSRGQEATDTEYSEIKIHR
T1 sequence (Q9Y286 19-467): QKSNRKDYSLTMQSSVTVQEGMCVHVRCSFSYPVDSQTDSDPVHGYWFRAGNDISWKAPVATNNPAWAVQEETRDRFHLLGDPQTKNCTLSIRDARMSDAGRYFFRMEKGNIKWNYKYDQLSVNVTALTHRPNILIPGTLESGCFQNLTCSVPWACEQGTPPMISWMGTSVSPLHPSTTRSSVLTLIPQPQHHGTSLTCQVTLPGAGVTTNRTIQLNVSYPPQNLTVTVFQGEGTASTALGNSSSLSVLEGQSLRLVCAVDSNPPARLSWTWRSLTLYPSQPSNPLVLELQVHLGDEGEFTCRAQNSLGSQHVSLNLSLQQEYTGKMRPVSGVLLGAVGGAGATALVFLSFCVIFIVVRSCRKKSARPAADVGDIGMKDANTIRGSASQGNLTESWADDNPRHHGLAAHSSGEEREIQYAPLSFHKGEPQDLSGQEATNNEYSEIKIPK
T7 sequence (Q9Y336 other isoform, or with tags, fused parts or gaps mutant): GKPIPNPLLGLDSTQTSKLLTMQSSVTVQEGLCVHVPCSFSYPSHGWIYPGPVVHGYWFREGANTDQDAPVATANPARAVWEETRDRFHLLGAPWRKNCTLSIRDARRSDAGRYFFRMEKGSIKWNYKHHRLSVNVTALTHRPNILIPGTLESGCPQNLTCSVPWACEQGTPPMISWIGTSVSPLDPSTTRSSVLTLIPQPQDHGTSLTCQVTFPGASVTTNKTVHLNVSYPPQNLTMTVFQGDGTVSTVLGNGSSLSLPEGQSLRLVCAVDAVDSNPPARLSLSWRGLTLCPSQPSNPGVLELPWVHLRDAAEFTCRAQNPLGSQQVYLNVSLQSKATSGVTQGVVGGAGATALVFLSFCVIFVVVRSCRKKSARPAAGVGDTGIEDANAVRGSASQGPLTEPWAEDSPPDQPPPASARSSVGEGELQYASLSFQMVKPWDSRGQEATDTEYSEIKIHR
T3 sequence (Q9Y336 other isoform, or with tags, fused parts or gaps mutant): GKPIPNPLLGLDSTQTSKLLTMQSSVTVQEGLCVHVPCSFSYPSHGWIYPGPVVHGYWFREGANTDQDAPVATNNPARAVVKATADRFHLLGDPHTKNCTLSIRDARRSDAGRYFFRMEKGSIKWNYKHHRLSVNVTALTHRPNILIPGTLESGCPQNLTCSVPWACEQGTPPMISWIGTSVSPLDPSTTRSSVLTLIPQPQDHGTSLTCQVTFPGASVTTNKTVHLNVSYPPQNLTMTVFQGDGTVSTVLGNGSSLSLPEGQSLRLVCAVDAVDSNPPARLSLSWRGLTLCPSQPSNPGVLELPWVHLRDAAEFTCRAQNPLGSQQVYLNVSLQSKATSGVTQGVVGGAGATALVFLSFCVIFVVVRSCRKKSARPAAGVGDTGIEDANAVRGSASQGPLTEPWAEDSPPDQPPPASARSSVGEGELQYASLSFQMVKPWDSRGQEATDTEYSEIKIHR
T9 sequence (chain, as listed by the source limits assumed): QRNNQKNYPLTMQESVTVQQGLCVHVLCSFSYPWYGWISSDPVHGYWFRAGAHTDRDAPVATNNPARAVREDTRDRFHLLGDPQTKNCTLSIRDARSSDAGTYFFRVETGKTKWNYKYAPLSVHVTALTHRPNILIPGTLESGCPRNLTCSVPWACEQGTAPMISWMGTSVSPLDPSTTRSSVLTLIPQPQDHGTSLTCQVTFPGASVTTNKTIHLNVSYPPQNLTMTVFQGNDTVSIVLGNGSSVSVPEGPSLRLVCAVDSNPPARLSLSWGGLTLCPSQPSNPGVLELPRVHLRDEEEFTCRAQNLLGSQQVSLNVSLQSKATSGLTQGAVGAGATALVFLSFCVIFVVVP
T10 sequence (chain, as listed by the source limits assumed): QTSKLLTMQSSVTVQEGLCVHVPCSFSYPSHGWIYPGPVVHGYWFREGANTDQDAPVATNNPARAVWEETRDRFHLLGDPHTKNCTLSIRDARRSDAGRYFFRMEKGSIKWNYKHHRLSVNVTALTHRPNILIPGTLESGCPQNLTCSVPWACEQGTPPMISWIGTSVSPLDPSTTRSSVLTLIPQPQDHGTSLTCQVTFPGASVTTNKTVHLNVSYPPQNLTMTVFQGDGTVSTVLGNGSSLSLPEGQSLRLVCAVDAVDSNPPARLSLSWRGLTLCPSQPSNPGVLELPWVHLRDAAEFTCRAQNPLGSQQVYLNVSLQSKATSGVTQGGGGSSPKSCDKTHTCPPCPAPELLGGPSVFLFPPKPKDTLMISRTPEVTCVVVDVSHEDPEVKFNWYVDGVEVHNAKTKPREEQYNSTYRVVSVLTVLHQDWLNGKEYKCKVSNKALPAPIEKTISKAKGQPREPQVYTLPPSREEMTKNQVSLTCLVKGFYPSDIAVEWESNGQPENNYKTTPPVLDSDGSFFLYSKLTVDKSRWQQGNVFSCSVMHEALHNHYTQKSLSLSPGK

B1: mAbA (antibody, human IgG1, V domains shown)
VH: QVQLQQPGAELVKPGSPVKLSCKASYFTFTSYWMHWVRQRPGQGLEWIGEINPSNGHTNYNEKFESKATLTVDRSSSTAYMQLSSLTSEDSAVFYCANGVESYDFDDALDYWGQGTSVTVSS
VL: DIQMTQTTSSLSASLGDRVTISCRASQDINNYLNWYQQKPDGTIKLLIYYTSRLHSGVPSRFSGSGSGTDYSLTINNLEQEDIATYFCQQGNTLPFTFGGGTKLEIK
As for B1, the binding result with Human Siglec-7 [1] is reported as “no binding”; in experiment [4] it was “binds”; with Human Siglec-9 mutant M5, “binds”; with Human Siglec-9 mutant M3, “binds”; in the experiment with Human Siglec-9 mutant M9 [5], “binds”; in experiment [6], “binds”. The binding result in [7] was “binds”. Moreover, the EC50 with Human Siglec-9 [2] was determined as 0.232 µg/mL; with Human Siglec-9 [3] it was 0.08 µg/mL.

B2: mAbB (antibody, human IgG1, V domains shown)
VH: QVQLQQPGAELVKPGASVKLSCKASVYTFTSYWMHWVKQRPGQGLEWIGEINPSNGHTNYNEKFKTKAKLTVDKSSSTAYMQLSSLTSEDSAVYFCANGVETYDFDDAMDYWGQGTSVTVSS
VL: DIQMTQTTSSLSASLGDRVTISCRASQDINNYLNWYQQKPDGTVKLLIYFTSRLHSGVPSRFSGSGSGTDYSLTISNLEQEDIATYFCQQGDTFPFTFGGGTKLEIK
Turning to B2, the binding result is “no binding” with Human Siglec-7 [1]; “binds” in experiment [4]; “binds” with Human Siglec-9 mutant M5; “binds” with Human Siglec-9 mutant M3; “binds” with Human Siglec-9 mutant M9 [5]; “binds” in experiment [6]. The binding result in experiment [7] is listed as “binds”. In the experiment with Human Siglec-9 [3], this molecule registered an EC50 of 0.1 µg/mL.

B3: mAbD (antibody, human IgG1, V domains shown)
VH: QIQLVQSGPELKKPGETVKISCKASGYTFTDYSMHWVKQAPGKGLKWMGWIITETGEPTYADDFRGRFAFSLETSANTAYLQINNLKNEDTATYFCARDFDGYWGQGTTLTVSS
VL: DILMTQSPASLSASVGETVTITCRASENIYSYLAWYQQKRGKSPQFLVYNAKTLTEGVPSRFRGSGSGTQFSLKINSLQPEDFGTYYCQHHYGFPWTFGGGTKLEIK
As to B3, the binding result in the experiment with Human Siglec-7 [1] is given as “no binding”; in experiment [4], “binds”; in the experiment with Human Siglec-9 mutant M5, “binds”; in the experiment with Human Siglec-9 mutant M3, “binds”; with Human Siglec-9 mutant M9 [5], “binds”; in experiment [6], “binds”. The binding result in experiment [7] is reported as “binds”. Also, the EC50 with Human Siglec-9 [2] was 2.47 µg/mL.

B4: mAbE (antibody, human IgG1, V domains shown)
VH: DVQLVESGGGLVQPGGSRKLSCAASGFTFSTFGMHWVRQAPEKGLEWVAYISSGSNAIYYADTVKGRFTISRDNPKNTLFLQMTSLRSEDTAMYYCASPGYGAWFAYWGQGTLVTVSA
VL: ENVLTQSPAIMSASPGEKVTMTCRASSSVSSAYLHWYQQKSGASPKLWIYSTSNLASGVPARFSGSGSGTSYSLTISSVEAEDAATYYCQQYSAYPYTFGGGTKLEIK
Turning to B4, the binding result was “no binding” in experiment [8]; “no binding” with Human Siglec-9 mutant M9 [9]; “no binding” in experiment [10]; “no binding” with Human Siglec-7 [1]; “binds” with Human Siglec-9 mutant M5; “binds” in the experiment with Human Siglec-9 mutant M3. Also, the binding result in experiment [7] is recorded as “binds”. The molecule further yielded an EC50 with Human Siglec-9 [3] of 0.01 µg/mL.

B5: mAb2 (antibody, human IgG1, V domains shown)
VH: EVQLQESGPGLVKPSQSLSLTCTVTGYSITGGFAWNWIRQFPGNTLEWMGYIGYGGSTSYNPSLNSRISITRDTSKNHFFLQFNSVTTEDSATYYCARGDYLFAYWGQGTLVTVSA
VL: DIVMTQSHKFMSTSVGDRVSITCKASQDVNTAVAWYQQKPGQSPKLLIYSASYRYTGVPDRFTGSGSGTDFTFTISSVQAEDLAVYYCQQHYSTPRTFGGGTKLEIK
For B5, the binding result is recorded as “no binding” in experiment [8]; “no binding” with Human Siglec-9 mutant M9 [9]; “no binding” in experiment [10]; “binds” with Human Siglec-9 mutant M5; “binds” with Human Siglec-9 mutant M3; “binds” in experiment [7]. Moreover, the EC50 with Human Siglec-9 [11] worked out at 0.08 µg/mL; with Human Siglec-7 [12], 0.17 µg/mL; in the experiment with Cynomolgus Siglec, 0.53 µg/mL.

B6: mAb3 (antibody, human IgG1, V domains shown)
VH: EVQLLETGPGLVKPSQSLSLTCTVTGYSITGGFAWNWIRQFPGNTLEWMGYIGYGGSTSYNPSLNSRISITRDTSKNHFFLQFNSVTTEDSATYYCARGDYLFAYWGQGTLVTVSA
VL: DILMTQSPASLSASVGETVSITCRASGNIHNYLAWYLQRQGKSPQLLVYNAKTLADGVPSRFSGTGSGTQFSLKINSLQPEDFGSYYCQHFWSTPRTFGGGTKLEIK
For B6, the binding result in experiment [8] is “no binding”; with Human Siglec-9 mutant M9 [9], “no binding”; in [10], “no binding”; in the experiment with Siglec-9 Fc protein, “binds”; in the experiment with Human Siglec-9 mutant M5, “binds”; in the experiment with Human Siglec-9 mutant M3 it was “binds”. For the same molecule, the binding result in experiment [7] is reported as “binds”. The EC50 was determined as 0.23 µg/mL with Human Siglec-9 [11], 0.22 µg/mL with Human Siglec-7 [12] and 0.85 µg/mL with Cynomolgus Siglec.

B7: mAbF (antibody, human IgG1, V domains shown)
VH: QVQLQQSGPEVVRPGVSVKISCKGSGYTFTDYSMHWVKQSHAKSLEWIGVISTYNGNTNYNQKFKGKATMTVDKSSSTAYMELARLTSEDSAIYYCARRGYYGSSSWFGYWGQGTLVTVSA
VL: DIVMTQSQKFMSTSVGDRVSVTCKASQNVGTDVAWYQQKPGQSPEALIYSASYRYSGVPDRFTGSGSGADFTLTISNVQSEDLAEYFCQQYNSFPYTFGGGTKLEIK
Turning to B7, the binding result was “no binding” in experiment [8]; “no binding” with Human Siglec-9 mutant M9 [9]; “no binding” in experiment [10]; “no binding” with Human Siglec-7 [1]; “binds” with Human Siglec-9 mutant M5; “binds” with Human Siglec-9 mutant M3. For the same molecule, in experiment [7], the binding result is reported as “binds”. Also, a half-maximal response in the experiment with Human Siglec-9 [3] (EC50) required 0.3 µg/mL.
